B2: DotZ (natural protein)
chain: MDEIKKDDELSQWLSTYGTITAERILGRYNISLPQDEILEAINIPSSFYRHLLQIPLKNVLNGIVIQQASDYHVYAQKLLIDYLLSGESSKEPDSQGAGTRESLEDERQRLVQLGDEFHKLELEQDNLIASSQASLMKISIDWNTKLETTLSKLNSLYKNTNSKIKKNAIRKALIKAFIHCDLVKDQSQKNKYQLIDKLNQTLAVSVGAELKESILTNLSELFQILEALNTKLDEFTDRTNHLSQQAKSFRTQFYEVILRIIELIKLLPEYKIDPAQDAINREPLYFDRTIGER
notes: also called lpg1549
B3: DotM (natural protein)
chain: MYIEMAQQQQQSGSDNSMAPVWIVILLFITAYFVWALAHQYIVSFVFTINIWQARLVNLFLNNQLLANQIYLMQTLDPNTVNWDQMVTVMRAVGDYMRYPVICILVVLAFVLYNSNVTLKYRKTYDMKSLRAQEQFNWPAIMPIVKEDLVSQDVNKGPWAMALTPMEFARKYNLLRKDDALLDNPVPGEEMTAGIRRGDAKRVFTMQLGPYWDGFERCSPQAYALSAVFMARMNRDRDAANNILKVLDKTFVDGKPDFSVARPVMKKYQNSELVQEVVAKHAYVLTVIASLLEAAREDGVVPSSEFLWLKPVDRRLWYMLNCVGRQTPYSEVAGPFAHWKAEKEMGRRSLVPMIDEAIRALEIAVKEVRLTPRQMEELEP

Tests used:
DotZ = target: B2; test: cryo-EM structure; conditions: both partners purified
DotM = target: B3; test: cryo-EM structure; conditions: both partners purified
[1] = target: T1, DotL with a Strep-tag at the C-terminus (Legionella pneumophila (strain Lp01), UniProt Q5ZYC6 1-783); test: affinity purification with mass spectrometry; conditions: partners not purified
T1 construct: also called DotL_(Strep); DotL_(strep)
T1 sequence: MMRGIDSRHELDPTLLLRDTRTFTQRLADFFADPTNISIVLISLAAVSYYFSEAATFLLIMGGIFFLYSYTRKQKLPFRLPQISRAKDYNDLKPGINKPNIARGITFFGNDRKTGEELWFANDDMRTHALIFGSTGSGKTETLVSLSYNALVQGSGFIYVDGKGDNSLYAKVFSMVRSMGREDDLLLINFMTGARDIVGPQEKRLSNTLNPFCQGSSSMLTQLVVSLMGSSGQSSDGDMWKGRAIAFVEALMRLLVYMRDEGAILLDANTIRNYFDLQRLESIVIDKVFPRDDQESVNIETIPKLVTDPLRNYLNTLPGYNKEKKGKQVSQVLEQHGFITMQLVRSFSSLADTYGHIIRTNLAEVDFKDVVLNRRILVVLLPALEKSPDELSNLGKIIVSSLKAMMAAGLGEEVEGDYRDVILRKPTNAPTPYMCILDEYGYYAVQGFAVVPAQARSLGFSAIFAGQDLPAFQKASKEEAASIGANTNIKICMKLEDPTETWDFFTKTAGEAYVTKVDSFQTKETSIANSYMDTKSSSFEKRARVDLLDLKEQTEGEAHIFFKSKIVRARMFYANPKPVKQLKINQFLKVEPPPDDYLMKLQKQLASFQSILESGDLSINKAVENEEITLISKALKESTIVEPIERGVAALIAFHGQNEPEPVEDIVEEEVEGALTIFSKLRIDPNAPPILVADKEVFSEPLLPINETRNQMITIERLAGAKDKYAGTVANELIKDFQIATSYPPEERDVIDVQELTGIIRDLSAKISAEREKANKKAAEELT

[2] = target: T1, DotL with a Strep-tag at the C-terminus; test: cryo-EM structure; conditions: both partners purified

B1: DotY (natural protein)
chain: MPKYTLPTRDALLKAMQVGETSIEAAEYMATRFEQILTKAKLLPECNDMLEKIKEYAQFVKFKLLSSAQVWSGQERPTSDYQNTQENKAEFLASHLEGLPSGLKLEVAIGDDAKILRGFSSNGKMVEGDQLKTMDGLLEGWLAKNSLAISGGAVVKIDNTGNQTKVDPQEIRQLINDSEKGVAKYFADKGVGMEVAQRTYQEPKALETKREEIRQEIESGAEAPTTQSIR
notes: also called lpg0294
Does B1 bind (DotZ)?
Result: binds

Does B2 bind (DotM)?
Result: binds

Does B3 bind [1]?
Result: binds

B4: DotN (natural protein)
chain: MNVNQTMADNQQRCELKLIASPGSWRLYSARKIDERFKSYEQKIFQRDRYTCQFCGFQARLYQDIVNLDGDYTNNRLSNLVTACCFCAQCFFVESVGVGGYGGGTLIYLPELTQAELNSLCHVLFCAITNDTGYKSSAQNIYRSFKFRSQIVEEKFGEGTSDPAIFGQLMIDSGVNSEEIREKLFKNIRLLPSRAKFRKQIEKWAASALEEIAD
Does B4 bind [2]?
Result: binds

Does B4 bind (DotZ)?
Result: binds

Reference: PMC9300119, “Proteins DotY and DotZ modulate the dynamics and localization of the type IVB coupling complex of Legionella pneumophila” (Molecular Microbiology, 2021)
